# B1: HRF-2CA-His6, a monomeric mutant of mouse HRF (protein)
# chain: MIIYRDLISHDELFSDIYKIREIADGLALEVEGKMVSRTEGAIDDSLIGGNASAEGPEGEGTESTVVTGVDIVMNHHLQETSFTKEAYKKYIKDYMKSLKGKLEEQKPERVKPFMTGAAEQIKHILANFNNYQFFIGENMNPDGMVALLDYREDGVTPFMIFFKDGLEMEKAHHHHHH
# How the values were obtained:
# [1] = tested on: c-Kit+ mucosal mast cells of the small intestine; experiment: Ex vivo mast cell activation test (MCAT); format: cell-based, mouse; conditions: cells from allergic mice, HRF-2CA 300 μg/ml
# Procedure: FIGS. 2A-2C show mucosal mast cells can be activated ex vivo by antigen. Cells were released with EDTA from small intestines of non-sensitized/OVA challenged (Cont) or OVA-sensitized/OVA-challenged (OVA) mice, and mononuclear cells were selected. The cells were incubated for 15 min at 37° C. with OVA or anti-IgE antibody, and activation of Kit^+ mast cells was measured by flow cytometry (FIG. 2A, FIG. 2B). **, ***: p<0.01, p<0.001 by Student's t-test. (n=2; a representative of 2 independent experiments) (FIG. 2C) Mucosal cells derived from OVA-sensitized/OVA-challenged mice were stimulated with PBS (n=4), OVA (10 ng/ml, n=4) or HRF dimer (100 μg/ml, n=2) in the presence or absence of HRF-2CA (300 μg/ml).
# FIGS. 11A-11C show HRF dimer, but not monomer can activate mast cells. (FIG. 11A) Purified dimeric and monomeric HRF expressed in E. coli. Recombinant HRF-[…] was purified first by Histrap HP and then Sephacryl S-200 HR16/60. Two peaks were observed by Sephacryl size fractionation. The first (Fr1) and second (Fr3) peaks contained dimer and monomer, respectively, as shown by SDS-PAGE. Fr1 and Fr3 were used for mast cell stimulation. (FIG. 11B) Cells were released with 10 mM EDTA from small intestines of OVA-sensitized/OVA-challenged mice, and mononuclear cells were selected. The cells were incubated for 15 min at 37° C. with mHRF monomer or dimer (100 μg/ml), or PBS, and Kit^+ mast cell activation (LAMP-1^+) was measured by flow cytometry (n=3). (FIG. 11C) Control experiments indicate an excellent specificity of the assay for HRF multimers. HRF-2CA (2CA) was used as a monomer control (n=2 for each concentration). Note that total concentrations of the 1:9 mixture of dimer:monomer gave almost the same luminescence values as did ten-fold less concentrations of dimer.
# Twenty-four hours after the last OVA challenge, mice were sacrificed and small intestines (0.5-15 cm from stomach) were collected. The intestinal tissues were opened longitudinally and washed with PBS. Then, the tissues were incubated with 10 mM EDTA-PBS for 30 min at 37° C. After incubation, the tissues were transferred to 30 ml PBS in 50 ml tubes and vigorously shaken. After washed, the cells were resuspended in 40% Percoll solution and slowly loaded on the top of 75% Percoll solution. The cells were then centrifuged (2000 rpm, 20 min) and lymphocytes were collected. The cells were once centrifuged and resuspended in Tyrode's buffer. Abs (Biotin-anti-CD4 mAb (clone RM4-5), Biotin-anti-CD8 mAb (clone 53-6.7), Biotin-anti-B220 mAb (clone RA3-6B2), Biotin-anti-CD326 mAb (clone G8.8), PE-anti-CD117 (clone 2B8), AlexaFluor647-anti-LAMP-1 mAb (clone 1D4B)) (Biolegend) were added and cells were then stimulated with OVA, anti-IgE (clone RME-1, BioLegend) and recombinant dimeric murine HRF for 15 min at 37° C. After activation, cells were washed and incubated with FITC-streptavidin (Catalog #405202, Biolegend) for 30 min at 4° C. LAMP-1 expression was detected using FACS Calibur. Data were analyzed using FlowJo software.
# [2] = tested on: IgE+ mMCP-1+ mast cells; experiment: Localization of gavaged HRF inhibitors in jejunum by confocal microscopy; format: in vivo, mouse; conditions: using anti-His tag, data not shown
# Procedure: HRF multimers in the jejunum of non-sensitized/OVA challenged (Cont, n=6) or OVA-sensitized/OVA-challenged (OVA, n=5) mice were quantified by a newly developed ELISA (FIG. 3A, FIG. 3C). HRF was also measured by ELISA (FIG. 3B). HRF dimer and monomer were quantified by western blotting in control (Cont) and food allergic mice treated without (OVA) or with GST (GST) or GST-N19 (N19) (n=5 for each group) (FIG. 3D). Allergic diarrhea was induced by 6 challenges. On the day of 7th challenge, the mice were gavaged with 0.1 mg of GST or GST-N19 (FIG. 3E). One hour later, mice were sacrificed without OVA challenge. Jejunum tissues were stained for GST, IgE, and mMCP-1 before confocal microscopy (n=5 for GST and n=6 for GST-N19). Arrows indicate cells positive for GST or GST-N19 as well as IgE and mMCP-1. […] Bars=50 μm.
# Jejunum biopsy was fixed in 4% paraformaldehyde at 4° C., washed in 10-20% sucrose in phosphate buffered saline, and embedded in O.C.T. compound (Sakura Finetek, Japan). Cyrosections were made in 6 μm and blocked with 2% skim milk. Immunostaining was performed with anti-HRF (rabbit polyclonal FL-172), anti-GST (rabbit polyclonal Z-5) (Santa Cruz Biotechnology), anti-IgE (clone RME-1 from Biolegend and clone R35-72 from BD Biosciences), anti-mMCP1 (Catalog #AF5146, R&D Systems), anti-CD45 (clone 30-F11), anti-CD63 (clone NVG-2) (Biolegend), and anti-Siglec F (clone E50-2440, BD Biosciences) as primary antibodies, and anti-Rabbit Alexa Fluor 647 (Catalog #A21245), anti-Rat Alexa Fluor 568 (Catalog #A11077), and anti-Sheep Alexa Fluor 555 (Catalog #A11015) (Thermo Fisher Scientific) as secondary antibodies. Coverslips were mounted with Prolong Gold with DAPI (Thermo Fisher Scientific) and fluorescence was observed under Leica TCS SP2 confocal microscopy (Leica) and Nuance Multi spectral Imaging System (PerkinElmer).
# Applicant next tested whether HRF inhibitors target mucosal mast cells. To this end, mice with allergic diarrhea were i.g. gavaged with GST-N19 or GST, and their location was identified 1 h after their gavage.
molecule,measurement,setting,value
B1,HRF-induced activation of mucosal mast cells,[1]; HRF dimer 100 μg/ml,significantly suppressed
same,OVA-induced activation of mucosal mast cells,[1]; OVA 10 ng/ml,significantly suppressed
same,IgE+ mMCP-1+ mast cells targeted by the His-tagged substance,[2],64.0±2.69%
